According to patent US20230303658A1 (published 2023):

B1: Fc_RK type anti-EpCAM antibody (antibody, human IgG1, kappa)
heavy: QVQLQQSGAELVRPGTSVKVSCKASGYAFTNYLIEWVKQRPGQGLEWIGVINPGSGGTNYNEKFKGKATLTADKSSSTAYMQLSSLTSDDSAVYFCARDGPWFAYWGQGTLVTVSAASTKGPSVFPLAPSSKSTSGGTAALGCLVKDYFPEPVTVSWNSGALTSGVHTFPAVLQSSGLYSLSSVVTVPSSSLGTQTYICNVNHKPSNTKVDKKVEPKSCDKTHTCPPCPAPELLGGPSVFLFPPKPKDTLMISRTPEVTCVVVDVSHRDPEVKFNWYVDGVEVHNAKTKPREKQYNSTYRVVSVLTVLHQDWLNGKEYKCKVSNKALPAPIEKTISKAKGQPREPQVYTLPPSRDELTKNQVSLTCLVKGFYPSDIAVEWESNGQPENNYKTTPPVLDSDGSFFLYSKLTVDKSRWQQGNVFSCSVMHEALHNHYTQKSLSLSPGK
light: NIVMTQSPKSMSMSVGERVTLTCKASENVVTYVSWYQQKPEQSPKLLIYGASNRYTGVPDRFTGSGSATDFTLTISSVQAEDLADYHCGQGYSYPYTFGGGTKLEIKRTVAAPSVFIFPPSDEQLKSGTASVVCLLNNFYPREAKVQWKVDNALQSGNSQESVTEQDSKDSTYSLSSTLTLSKADYEKHKVYACEVTHQGLSSPVTKSFNRGEC
B2: Fc_RR type anti-EpCAM antibody (antibody, human IgG1, kappa)
heavy: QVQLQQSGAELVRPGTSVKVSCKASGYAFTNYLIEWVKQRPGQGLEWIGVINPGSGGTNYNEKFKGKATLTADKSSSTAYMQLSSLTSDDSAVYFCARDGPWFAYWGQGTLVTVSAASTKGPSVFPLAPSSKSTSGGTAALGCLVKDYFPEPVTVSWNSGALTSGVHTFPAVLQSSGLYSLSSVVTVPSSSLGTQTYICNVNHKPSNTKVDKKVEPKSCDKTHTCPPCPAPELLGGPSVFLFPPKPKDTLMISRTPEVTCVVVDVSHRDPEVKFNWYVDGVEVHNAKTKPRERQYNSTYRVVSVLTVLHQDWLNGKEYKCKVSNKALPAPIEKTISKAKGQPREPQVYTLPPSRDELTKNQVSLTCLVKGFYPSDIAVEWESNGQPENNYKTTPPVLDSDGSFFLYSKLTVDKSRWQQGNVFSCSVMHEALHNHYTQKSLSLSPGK
light: NIVMTQSPKSMSMSVGERVTLTCKASENVVTYVSWYQQKPEQSPKLLIYGASNRYTGVPDRFTGSGSATDFTLTISSVQAEDLADYHCGQGYSYPYTFGGGTKLEIKRTVAAPSVFIFPPSDEQLKSGTASVVCLLNNFYPREAKVQWKVDNALQSGNSQESVTEQDSKDSTYSLSSTLTLSKADYEKHKVYACEVTHQGLSSPVTKSFNRGEC
B3: Fc_wt type anti-EpCAM antibody (antibody, human IgG1, kappa)
heavy: not shown
light: NIVMTQSPKSMSMSVGERVTLTCKASENVVTYVSWYQQKPEQSPKLLIYGASNRYTGVPDRFTGSGSATDFTLTISSVQAEDLADYHCGQGYSYPYTFGGGTKLEIKRTVAAPSVFIFPPSDEQLKSGTASVVCLLNNFYPREAKVQWKVDNALQSGNSQESVTEQDSKDSTYSLSSTLTLSKADYEKHKVYACEVTHQGLSSPVTKSFNRGEC
notes: also called edrecolomab variable regions on human Igγ1

Legend:
CD16V_K131D [1] = biological target: T1, CD16V_K131D (human, UniProt P08637 19-208); assay: ELISA: EpCAM coated, anti-EpCAM antibody captured, FLAG-tagged CD16V protein titrated from 10 µg/mL, anti-FLAG-HRP detection
T1 construct: Soluble FLAG-tagged mutant; also called K149D (AAH17865.1 numbering)
T1 sequence (P08637 other isoform, or with tags, fused parts or gaps K131D K131D): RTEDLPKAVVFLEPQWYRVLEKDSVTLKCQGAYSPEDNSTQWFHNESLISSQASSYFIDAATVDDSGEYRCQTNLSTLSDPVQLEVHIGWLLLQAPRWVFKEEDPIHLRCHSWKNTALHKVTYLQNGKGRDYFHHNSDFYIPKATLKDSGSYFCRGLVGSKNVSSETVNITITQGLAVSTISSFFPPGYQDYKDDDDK
Description: (§1) After incubation at room temperature for one hour, the plate was washed with TBS-T. Next, 20 μL of horseradish peroxidase-labeled anti-FLAG (registered trademark) M2 antibody diluted with the diluent was added to each well as a detection antibody. After incubating at room temperature for one hour, the plate was washed with TBS-T. After adding TMB+Substrate-Chromogen and incubating, the reaction was stopped by adding 1M sulfuric acid, and the absorbance at 450 nm and reference wavelength were measured using Infinite 200 PRO.

CD16V_K128E_K131E [2] = biological target: T2, CD16V_K128E_K131E (human, UniProt P08637 19-208); assay: as above
T2 construct: Soluble FLAG-tagged mutant
T2 sequence (P08637 other isoform, or with tags, fused parts or gaps K128E K131E K128E K131E): as the sequence (P08637 other isoform, or with tags, fused parts or gaps K131D K131D) above, with K128E, D131E counted along it
Description: as §1

CD16V_K131D_N74Q [3] = biological target: T3, CD16V_K131D_N74Q (human, UniProt P08637 19-208); assay: as above
T3 construct: Soluble FLAG-tagged mutant
T3 sequence (P08637 other isoform, or with tags, fused parts or gaps K131D N74Q K131D N74Q): as the sequence (P08637 other isoform, or with tags, fused parts or gaps K131D K131D) above, with N74Q counted along it
Description: as §1

CD16V_K128E_K131D [4] = biological target: T4, CD16V_K128E_K131D (human, UniProt P08637 19-208); assay: as above
T4 construct: Soluble FLAG-tagged mutant
T4 sequence (P08637 other isoform, or with tags, fused parts or gaps K128E K131D K128E K131D): as the sequence (P08637 other isoform, or with tags, fused parts or gaps K131D K131D) above, with K128E counted along it
Description: as §1

CD16V_K131D_N38Q [5] = biological target: T5, CD16V_K131D_N38Q (human, UniProt P08637 19-208); assay: as above
T5 construct: Soluble FLAG-tagged mutant
T5 sequence (P08637 other isoform, or with tags, fused parts or gaps K131D N38Q K131D N38Q): as the sequence (P08637 other isoform, or with tags, fused parts or gaps K131D K131D) above, with N38Q counted along it
Description: as §1

[6] = biological target: T6, CD16V protein (extracellular portion of CD16A V158 with C-terminal FLAG sequence) (human, UniProt P08637 19-208); assay: ELISA: EpCAM coated, anti-EpCAM antibody captured, FLAG-tagged CD16V protein titrated, anti-FLAG-HRP detection
T6 construct: Soluble protein from ExpiCHO-S cells, purified on anti-FLAG gel
T6 sequence (P08637 other isoform, or with tags, fused parts or gaps): as the sequence (P08637 other isoform, or with tags, fused parts or gaps K131D K131D) above, with D131K counted along it
Description: as §1

[7] = biological target: T6, CD16V protein (extracellular portion of …); assay: ELISA: EpCAM coated, anti-EpCAM antibody captured, FLAG-tagged CD16V protein titrated from 10 µg/mL, anti-FLAG-HRP detection
Description: as §1

CD16V_K131D [8] = biological target: T1, CD16V_K131D; assay: ELISA: EpCAM coated, anti-EpCAM antibody captured, FLAG-tagged CD16V protein titrated, anti-FLAG-HRP detection
Description: as §1

CD16V_K128E_K131E [9] = biological target: T2, CD16V_K128E_K131E; assay: as above
Description: as §1

CD16V_K131D_N74Q [10] = biological target: T3, CD16V_K131D_N74Q; assay: as above
Description: as §1

CD16V_K128E_K131D [11] = biological target: T4, CD16V_K128E_K131D; assay: as above
Description: as §1

CD16V_K131D_N38Q [12] = biological target: T5, CD16V_K131D_N38Q; assay: as above
Description: as §1

Binder | binding result (CD16V_K131D [1]) | binding result (CD16V_K128E_K131E [2]) | binding result (CD16V_K131D_N74Q [3]) | binding result (CD16V_K128E_K131D [4]) | binding result (CD16V_K131D_N38Q [5]) | binding result [6] | binding result [7] | binding result (CD16V_K131D [8]) | binding result (CD16V_K128E_K131E [9]) | binding result (CD16V_K131D_N74Q [10]) | binding result (CD16V_K128E_K131D [11]) | binding result (CD16V_K131D_N38Q [12])
B1 | binds | binds | binds | binds | binds | no binding (tested: CD16V protein up to 10 µg/mL) |  |  |  |  |  | 
B2 | binds | binds | binds | binds | binds | no binding (tested: CD16V protein up to 10 µg/mL) |  |  |  |  |  | 
B3 |  |  |  |  |  |  | binds | no binding (tested: CD16V protein up to 10 µg/mL) | no binding (tested: CD16V protein up to 10 µg/mL) | no binding (tested: CD16V protein up to 10 µg/mL) | no binding (tested: CD16V protein up to 10 µg/mL) | no binding (tested: CD16V protein up to 10 µg/mL)
